Assay results as given in patent US9114104B2, “Proteinase K inhibitors, methods and compositions therefor” (Life Technologies Corporation, priority 2008, dated 2015).
“And” between values parts separate entries of the source, which are not always exact repeats. Equal entries are not always repeated.

What was measured:
Assay type in all cases: biochemical
proteinase K [1] = biological target: T1, proteinase K (Parengyodontium album, UniProt P06873); assay: Direct assay: residual proteinase K activity on BSA substrate, precast SDS protein gel
Method: For the precast SDS denaturing protein gel analysis data of FIG. 3, proteinase K (50 μl of 100 μg/ml) lysis mixture without DNase (as for Example 2) was mixed with 5 μl of stop solution with varying amounts of MeOSuc-AAPF-CH2Cl (SEQ ID NO:5) and incubated for 10 min at room temperature. Ultrapure BSA (10 μl of 5 mg/ml, Applied Biosystems) was added to each sample and the samples were held for 10 min at room temperature. The reaction mixture was heated for 30 min at 95° C. and analyzed using precast protein gels (BIO-RAD, Hercules, Calif.). From the 65 μl of total reaction mixture, 10 μl reaction mixture was mixed with 5 μl of gel loading dye and further heated at 95° C. for 5 min. Then, the reactions were kept on ice for 2 min and loaded on the gel. Control reactions, with and without BSA, were also carried out. […]
The precast protein gel was run at 120 V for 1 h using 1× Tris/glycine/SDS buffer (BIO-RAD, Hercules, Calif.). […] The gel was analyzed using AlphaEase™ FC software (Alpha Innotech, San Leandro, Calif.). […]
Proteinase K (50 μl of 100 μg/ml) lysis mixture without DNase (as for Example 2) was mixed with 5 μl of stop solution with varying amounts of MeOSuc-AAAPL-CH2Cl (SEQ ID NO:7) and incubated for 10 min at room temperature. […] The reaction mixture was heated for 30 min at 95° C. and analyzed using precast protein gels (BIO-RAD, Hercules, Calif.). […]

proteinase K [2] = biological target: T1, proteinase K; assay: Detection of β-actin RNA in HeLa cell lysates after stop solution (in vitro validation); details: FIG. 6; ~10,000 HeLa cells lysed, β-actin RT-PCR
Method: HeLa cells (˜10,000 cells) were lysed in 50 μl lysis solution for 5 minutes at room temperature. Stop solution (5 μl) was then added; the lysate-stop solution was mixed, and incubated for 2 minutes at room temperature. A volume of 10 μl of stopped lysate was added to a 50 μl RT reaction followed by addition of 4 μl of RT reaction into a 20 μl PCR reaction using the β-actin primers/probe of the TaqMan® Gene Expression Cells-to-CT™ Kit (Applied Biosystems).

proteinase K [3] = biological target: T1, proteinase K; assay: Indirect linked assay: proteinase K inhibition read out by reverse transcriptase real time PCR of Xeno RNA template (Cells-to-CT kit); details: for lowest concentration in the stopped mixture with inhibitory activity for proteinase K: Example 2, FIG. 1, tested 1 mM to 0.05 mM in stopped mixture; for proteinase K inhibitory activity: all concentrations tested; for Ct (cycle threshold): all concentrations tested (1 mM to 0.05 mM), no Xeno RNA detected
Text: The present example provides for inhibition of proteinase K in the context of preparing samples for nucleic acid detection. Said preparation of samples is described by pending U.S. patent application Ser. No. 12/122,274 filed May 16, 2008 entitled “Sample Preparation for In Situ Nucleic Acid Analysis, Methods and Compositions Therefor,” hereby incorporated by reference in its entirety. Embodiments of said patent application provide a process for preparing a sample containing RNA for in situ analysis of RNA or a surrogate thereof. In some embodiments, the process comprises contacting the sample containing RNA with a lysis mixture comprising a polypeptide having protease activity under conditions and for a time to produce a lysate, and admixing at least a portion of the lysate with a stop mixture that comprises an inhibitor of the polypeptide having protease activity at substantially the same temperature as the contacting step to form a stopped mixture. The resultant stopped mixture is preferably compatible with in situ reverse transcriptase and DNA polymerase reactions.
Methoxysuccinyl tetrapeptide chloromethylketone compounds synthesized as set forth in Example 1 herein were analyzed for inhibitory activity of proteinase K in such stopped mixtures as described below. Functional validation for the nucleic acid detection system using inhibitors of embodiments herein was carried out by measuring mRNA levels in biological samples using the TaqMan® Gene Expression Cells-to-CT™ Kit and the TaqMan® Cells-to-CT™ Control Kit (Applied Biosystems, Foster City, Calif.). MicroAmp® optical 96-well reaction plates were purchased from Applied Biosystems. Disposable reagent reservoirs were purchased from VistaLab Technologies, Inc (Mt. Kisco, N.Y.). Reverse transcription (RT) reactions were performed at 37° C. for 60 min, 95° C. for 5 min, and cooled to 4° C. by using GeneAmp® PCR systems 9700 (Applied Biosystems). Real time PCR was performed by using 7500 Fast Real-Time PCR System. (Applied Biosystems).
The present indirect linked assay measures the amount of inhibition of proteinase K activity by assaying reverse transcriptase real time PCR amplification of a template, which amplification is dependent upon reverse transcriptase activity.
Stop solutions (100 μl) contained the following reagents (10× concentration):
Test inhibitor, 11 mM (final concentration when diluted into stopped mixture is 1 mM). Test inhibitor was also used at concentrations such that, when diluted with a lysis mixture to form a stopped mixture as described below, the final concentration of inhibitor in the stopped mixture was 0.75 mM, 0.5 mM, 0.25 mM, 0.10 mM, 0.05 mM and 0 mM (control).
Proteinase K lysis solution (50 μL (no added DNase)) from the TaqMan® gene expression Cells-to-CT™ kit (Applied Biosystems) was aliquoted into 18 tubes. To the test samples (these are a working equivalent to lysis mixtures in the Cells-to-CT™ workflow), stop solution (5 μL) was added; the tubes were mixed and held for 2 min at room temperature. For the control reactions, 50 μl of proteinase K buffer was mixed with 5 μl of stop mix without inhibitor and the resulting reaction mixture was heated at 95° C. for 10 min to thermally inactivate the proteinase K reaction. Next, reverse transcription reagents were prepared, i.e. 15 μL 2×RT buffer, and 1.5 μL of 20×RT enzyme mix, were aliquoted and mixed in the wells of a 96 well plate. To this RT solution, 13.5 μL of each proteinase K containing stopped mixture was added and the solution was mixed well. The resulting mixtures were incubated at room temperature for 1 hr for residual proteinase K activity to degrade the RT enzyme. After 1 hr incubation at room temperature, 1 μL of Xeno™ RNA Control template (Applied Biosystems P/N 4386995 diluted to 25,000 copies/μL in 10 ng/μL poly A) was added to all wells except for the no template control wells. […]

proteinase K [4] = biological target: T1, proteinase K; assay: Direct assay: residual proteinase K activity on BSA substrate, Protein 80 Bioanalyzer chip; details: FIG. 2
Method: A direct assay for inhibition of proteinase K activity by MeOSuc-AAPF-CH2Cl (SEQ ID NO:5) was carried out using bovine serum albumin (BSA) as substrate and analyzing products using each Bioanalyzer chips and precast protein gels. Such direct assays were carried out to separate inhibition of proteinase K by a test inhibitor from any effects the stopped mixture may have on an RT-PCR reaction.
The reaction mixtures included the proteinase K solution (50 μL, 100 μg/ml) mixed with 5 μL of stop solution having varying amounts of tetrapeptide, MeOSuc-AAPF-CH2Cl (SEQ ID NO:5), as for Example 2. Incubation was for 10 min at room temperature. To assay for proteinase K activity, ultrapure BSA (12 μL of 50 mg/ml) was added to each sample and the samples were held for 10 min at room temperature. Resultant mixtures were heated for 30 min at 95° C. and analyzed using a Protein 80 Bioanalyzer chip (2100 Bioanalyzer, Agilent, Santa Clara, Calif.). The Bioanalyzer protein gel data is provided in FIG. 2, in which intact Ultrapure BSA (Applied Biosystems) is at about 70 kDa, and proteinase K is at about 35 kDa. The lanes of FIG. 2 are labeled as follows from left to right: Ladder; BSA only; No BSA (proteinase K only); MeOSuc-AAPF-CH2Cl (SEQ ID NO:5) in the stopped mixture at 1 mM, 0.75 mM, 0.5 mM, 0.25 mM, 0.125 mM, and 0 mM.

T1 sequence (P06873 106-384): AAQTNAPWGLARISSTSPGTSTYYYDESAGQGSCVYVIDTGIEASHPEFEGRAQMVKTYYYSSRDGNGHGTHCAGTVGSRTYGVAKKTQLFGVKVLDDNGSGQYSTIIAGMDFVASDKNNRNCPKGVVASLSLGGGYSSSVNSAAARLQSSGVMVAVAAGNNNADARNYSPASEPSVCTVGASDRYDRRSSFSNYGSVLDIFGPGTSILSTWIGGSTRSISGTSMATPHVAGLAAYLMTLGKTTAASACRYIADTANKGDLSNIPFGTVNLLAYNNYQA

Substance: methoxysuccinyl-AAAPL-chloromethyl ketone (HELM PEPTIDE1{[COC(=O)CCC(=O)[*:2]].A.A.A.P.L.[ClC[*:1]]}$$$$V2.0; SMILES COC(=O)CCC(=O)N[C@@H](C)C(=O)N[C@@H](C)C(=O)N[C@@H](C)C(=O)N1CCC[C@H]1C(=O)N[C@@H](CC(C)C)C(=O)CCl) [MeOSuc-AAAPL-CH2Cl]
- lowest concentration capable of inhibiting proteinase K (BSA present in gel lane) (proteinase K [1]; FIG. 7, tested 1 mM to 0.05 mM in stopped mixture): 0.1 mM and 0.10 mM
- concentration providing effective inhibition of proteinase K (proteinase K [2]): about 0.1 mM
- lowest concentration in the stopped mixture inhibitory for proteinase K activity (proteinase K [3]; Example 6, FIG. 5, tested 1 mM to 0.05 mM): about 0.05 mM

Substance: methoxysuccinyl-AAPF-chloromethyl ketone (HELM PEPTIDE1{[COC(=O)CCC(=O)[*:2]].A.A.P.F.[ClC[*:1]]}$$$$V2.0; SMILES COC(=O)CCC(=O)N[C@@H](C)C(=O)N[C@@H](C)C(=O)N1CCC[C@H]1C(=O)N[C@@H](Cc1ccccc1)C(=O)CCl) [MeOSuc-AAPF-CH2Cl]
- inhibiting concentration relative to MeOSuc-AAPV-CH2Cl (proteinase K [1]; FIG. 3, compare lanes at 0.5 mM and 0.25 mM): at least half that of MeOSuc-AAPV-CH2Cl
- lowest concentration in the stopped mixture with inhibitory activity for proteinase K (proteinase K [3]; listed as MeOSuc-AlaAlaProPhe-CH2Cl): 0.05 mM
- average Ct (cycle threshold) (proteinase K [3]; FIG. 1, 0.05 mM inhibitor): about 30
- lowest concentration capable of inhibiting proteinase K (proteinase K [4]; 10 min incubation with proteinase K (100 μg/ml) before BSA): 0.125 mM
- concentration capable of inhibiting proteinase K when incubated for a longer period prior to BSA (proteinase K [4]; longer incubation with proteinase K before addition of BSA substrate): < 0.125 mM

Substance: methoxysuccinyl-APAF-chloromethyl ketone (HELM PEPTIDE1{[COC(=O)CCC(=O)[*:2]].A.P.A.F.[ClC[*:1]]}$$$$V2.0; SMILES COC(=O)CCC(=O)N[C@@H](C)C(=O)N1CCC[C@H]1C(=O)N[C@@H](C)C(=O)N[C@@H](Cc1ccccc1)C(=O)CCl) [MeOSuc-APAF-CH2Cl]
- proteinase K inhibitory activity (proteinase K [3]; FIG. 1): inactive at all concentrations tested
- Ct (cycle threshold) (proteinase K [3]; FIG. 1): 40

Substance: MeOSuc-AlaAlaAlaProVal-CH2Cl (AAAPV; HELM PEPTIDE1{[COC(=O)CCC(=O)[*:2]].A.A.A.P.V.[ClC[*:1]]}$$$$V2.0; SMILES COC(=O)CCC(=O)N[C@@H](C)C(=O)N[C@@H](C)C(=O)N[C@@H](C)C(=O)N1CCC[C@H]1C(=O)N[C@H](C(=O)CCl)C(C)C) [MeOSuc-AAAPV-CH2Cl]
- concentration providing effective inhibition of proteinase K (proteinase K [2]): 0.5 mM
- concentration required to achieve the same level of inhibition as MeOSuc-AAPV-CH2Cl at 0.25 mM (proteinase K [3]; FIG. 5): 0.75 mM

Substance: MeOSuc-AlaAlaAlaProPhe-CH2Cl (AAAPF; HELM PEPTIDE1{[COC(=O)CCC(=O)[*:2]].A.A.A.P.F.[ClC[*:1]]}$$$$V2.0; SMILES COC(=O)CCC(=O)N[C@@H](C)C(=O)N[C@@H](C)C(=O)N[C@@H](C)C(=O)N1CCC[C@H]1C(=O)N[C@@H](Cc1ccccc1)C(=O)CCl) [MeOSuc-AAAPF-CH2Cl]
- concentration providing effective inhibition of proteinase K (proteinase K [2]): about 0.1 mM
- concentration required to achieve the same level of inhibition as MeOSuc-AAPF-CH2Cl at 0.05 mM (proteinase K [3]; FIG. 5 compared to FIG. 1): 0.1 mM

Substance: methoxysuccinyl-APAV-chloromethyl ketone (HELM PEPTIDE1{[COC(=O)CCC(=O)[*:2]].A.P.A.V.[ClC[*:1]]}$$$$V2.0; SMILES COC(=O)CCC(=O)N[C@@H](C)C(=O)N1CCC[C@H]1C(=O)N[C@@H](C)C(=O)N[C@H](C(=O)CCl)C(C)C) [MeOSuc-APAV-CH2Cl]
- proteinase K inhibitory activity (proteinase K [3]; FIG. 1): inactive at all concentrations tested
- Ct (cycle threshold) (proteinase K [3]; FIG. 1): 40

Substance: methoxysuccinyl-AAPL-chloromethyl ketone (HELM PEPTIDE1{[COC(=O)CCC(=O)[*:2]].A.A.P.L.[ClC[*:1]]}$$$$V2.0; SMILES COC(=O)CCC(=O)N[C@@H](C)C(=O)N[C@@H](C)C(=O)N1CCC[C@H]1C(=O)N[C@@H](CC(C)C)C(=O)CCl) [MeOSuc-AAPL-CH2Cl]
- concentration providing effective inhibition of proteinase K (proteinase K [2]): about 0.1 mM

Substance: methoxysuccinyl-APAL-chloromethyl ketone (HELM PEPTIDE1{[COC(=O)CCC(=O)[*:2]].A.P.A.L.[ClC[*:1]]}$$$$V2.0; SMILES COC(=O)CCC(=O)N[C@@H](C)C(=O)N1CCC[C@H]1C(=O)N[C@@H](C)C(=O)N[C@@H](CC(C)C)C(=O)CCl) [MeOSuc-APAL-CH2Cl]
- lowest concentration in the stopped mixture with inhibitory activity for proteinase K (proteinase K [3]): about 0.5 mM
